Source: patent US20230399608A1, “PROCESS FOR ESTABLISHING A HUMAN TESTICULAR TISSUE CULTURE SYSTEM” (PATERNA BIOSCIENCES INC., priority 2021, published 2023)

B1: Neurturin (NRTN): ligand of GFRA1/GFRA2/RET/GFRA3 (protein, UniProt Q99748 96-197, looked up)
Neurturin: ARLGARPCGLRELEVRVSELGLGYASDETVLFRYCAGACEAAARVYDLGLRRLRQRRRLRRERVRAQPCCRPTAYEDEVSFLDAHSRYHTVHELSARECACV
B2: GDF9: ligand of ACVR2A/BMPR1B/BMPR1A/BMPR2/TGFBR1 (protein, UniProt O60383 320-454, looked up)
Growth/differentiation factor …: GQETVSSELKKPLGPASFNLSEYFRQFLLPQNECELHDFRLSFSQLKWDNWIVAPHRYNPRYCKGDCPRAVGHRYGSPVHTMVQNIIYEKLDSSVPRPSCVPAKYSPLSVLTIEPDGSIAYKEYEDMIATKCTCR
B3: rh Midkine Protein: ligand of GPC2 (protein, UniProt P21741 21-143, looked up)
Midkine: VAKKKDKVKKGGPGSECAEWAWGPCTPSSKDCGVGFREGTCGAQTQRIRCRVPCNWKKEFGADCKYKFENWGACDGGTGTKVRQGTLKKARYNAQCQETIRVTKPCTPKTKAKAKAKKGKGKD
B4: rh HB-EGF: ligand of CD9 (protein, UniProt Q99075 63-148, looked up)
Heparin-binding EGF-like …: DLQEADLDLLRVTLSSKPQALATPNKEEHGKRKKKGKGLGKKRDPCLRKYKDFCIHGECKYVKELRAPSCICHPGYHGERCHGLSL
B5: CNTN2: ligand of CNTNAP2 (protein, UniProt Q02246 31-1012, looked up)
Contactin-2: SQTTFGPVFEDQPLSVLFPEESTEEQVLLACRARASPPATYRWKMNGTEMKLEPGSRHQLVGGNLVIMNPTKAQDAGVYQCLASNPVGTVVSREAILRFGFLQEFSKEERDPVKAHEGWGVMLPCNPPAHYPGLSYRWLLNEFPNFIPTDGRHFVSQTTGNLYIARTNASDLGNYSCLATSHMDFSTKSVFSKFAQLNLAAEDTRLFAPSIKARFPAETYALVGQQVTLECFAFGNPVPRIKWRKVDGSLSPQWTTAEPTLQIPSVSFEDEGTYECEAENSKGRDTVQGRIIVQAQPEWLKVISDTEADIGSNLRWGCAAAGKPRPTVRWLRNGEPLASQNRVEVLAGDLRFSKLSLEDSGMYQCVAENKHGTIYASAELAVQALAPDFRLNPVRRLIPAARGGEILIPCQPRAAPKAVVLWSKGTEILVNSSRVTVTPDGTLIIRNISRSDEGKYTCFAENFMGKANSTGILSVRDATKITLAPSSADINLGDNLTLQCHASHDPTMDLTFTWTLDDFPIDFDKPGGHYRRTNVKETIGDLTILNAQLRHGGKYTCMAQTVVDSASKEATVLVRGPPGPPGGVVVRDIGDTTIQLSWSRGFDNHSPIAKYTLQARTPPAGKWKQVRTNPANIEGNAETAQVLGLTPWMDYEFRVIASNILGTGEPSGPSSKIRTREAAPSVAPSGLSGGGGAPGELIVNWTPMSREYQNGDGFGYLLSFRRQGSTHWQTARVPGADAQYFVYSNESVRPYTPFEVKIRSYNRRGDGPESLTALVYSAEEEPRVAPTKVWAKGVSSSEMNVTWEPVQQDMNGILLGYEIRYWKAGDKEAAADRVRTAGLDTSARVSGLHPNTKYHVTVRAYNRAGTGPASPSANATTMKPPPRRPPGNISWTFSSSSLSIKWDPVVPFRNESAVTGYKMLYQNDLHLTPTLHLTGKNWIEIPVPEDIGHALVQIRTTGPGGDGIPAEVHIVRNGGTSMMVEN
B6: WNT-1: ligand of RYK/FZD3/FZD7/FZD1/ROR2/LRP6 (protein, UniProt P04628 28-370, looked up)
Proto-oncogene Wnt-1: ANSSGRWWGIVNVASSTNLLTDSKSLQLVLEPSLQLLSRKQRRLIRQNPGILHSVSGGLQSAVRECKWQFRNRRWNCPTAPGPHLFGKIVNRGCRETAFIFAITSAGVTHSVARSCSEGSIESCTCDYRRRGPGGPDWHWGGCSDNIDFGRLFGREFVDSGEKGRDLRFLMNLHNNEAGRTTVFSEMRQECKCHGMSGSCTVRTCWMRLPTLRAVGDVLRDRFDGASRVLYGNRGSNRASRAELLRLEPEDPAHKPPSPHDLVYFEKSPNFCTYSGRLGTAGTAGRACNSSSPALDGCELLCCGRGHRTRTQRVTERCNCTFHWCCHVSCRNCTHTRVLHECL
B7: Artemin (ARTN): ligand of GFRA1/GFRA2/RET/GFRA3 (protein, UniProt Q5T4W7 108-220, looked up)
Artemin: AGGPGSRARAAGARGCRLRSQLVPVRALGLGHRSDELVRFRFCSGSCRRARSPHDLSLASLLGAGALRPPPGSRPVSQPCCRPTRYEAVSFMDVNSTWRTVDRLSATACGCLG
B8: DLK2: ligand of NOTCH1 (protein, UniProt Q6UY11 27-383, looked up)
Protein delta homolog 2: DDCSSHCDLAHGCCAPDGSCRCDPGWEGLHCERCVRMPGCQHGTCHQPWQCICHSGWAGKFCDKDEHICTTQSPCQNGGQCMYDGGGEYHCVCLPGFHGRDCERKAGPCEQAGSPCRNGGQCQDDQGFALNFTCRCLVGFVGARCEVNVDDCLMRPCANGATCLDGINRFSCLCPEGFAGRFCTINLDDCASRPCQRGARCRDRVHDFDCLCPSGYGGKTCELVLPVPDPPTTVDTPLGPTSAVVVPATGPAPHSAGAGLLRISVKEVVRRQEAGLGEPSLVALVVFGALTAALVLATVLLTLRAWRRGVCPPGPCCYPAPHYAPACQDQECQVSMLPAGLPLPRDLPPEPGKTTAL
B9: WNT-3A: ligand of RYK/FZD3/FZD7/FZD1/LRP6 (protein, UniProt P56704 19-352, looked up)
Protein Wnt-3a: SYPIWWSLAVGPQYSSLGSQPILCASIPGLVPKQLRFCRNYVEIMPSVAEGIKIGIQECQHQFRGRRWNCTTVHDSLAIFGPVLDKATRESAFVHAIASAGVAFAVTRSCAEGTAAICGCSSRHQGSPGKGWKWGGCSEDIEFGGMVSREFADARENRPDARSAMNRHNNEAGRQAIASHMHLKCKCHGLSGSCEVKTCWWSQPDFRAIGDFLKDKYDSASEMVVEKHRESRGWVETLRPRYTYFKVPTERDLVYYEASPNFCEPNPETGSFGTRDRTCNVSSHGIDGCDLLCCGRGHNARAERRREKCRCVFHWCCYVSCQECTRVYDVHTCK
B10: BMP8b: ligand of BMPR1B/BMPR1A/BMPR2 (protein, UniProt P34820 264-402, looked up)
Bone morphogenetic protein 8B: AVRPLRRRQPKKSNELPQANRLPGIFDDVHGSHGRQVCRRHELYVSFQDLGWLDWVIAPQGYSAYYCEGECSFPLDSCMNATNHAILQSLVHLMMPDAVPKACCAPTKLSATSVLYYDSSNNVILRKHRNMVVKACGCH
B11: GDF6/BMP13: ligand of BMPR1B/BMPR1A/BMPR2 (protein, UniProt Q6KF10 336-455, looked up)
Growth/differentiation factor …: TAFASRHGKRHGKKSRLRCSKKPLHVNFKELGWDDWIIAPLEYEAYHCEGVCDFPLRSHLEPTNHAIIQTLMNSMDPGSTPPSCCVPTKLTPISILYIDAGNNVVYKQYEDMVVESCGCR
B12: GDF11/BMP11: ligand of BMPR1B/BMPR1A/BMPR2/ACVR2B/ACVR1B/ACVR2A (protein, UniProt O95390 299-407, looked up)
Growth/differentiation factor …: NLGLDCDEHSSESRCCRYPLTVDFEAFGWDWIIAPKRYKANYCSGQCEYMFMQKYPHTHLVQQANPRGSAGPCCTPTKMSPINMLYFNDKQQIIYGKIPGMVVDRCGCS

Tested on: testicular germ cell proliferation
Assay: Screen of SSC / differentiating spermatogonia receptor ligands in the iterative culture process
Format: cell-based, human
Conditions: ligand at the concentration listed in Table 5; effective to date at improving germ cell proliferation
Description: A process for identification and selection of receptor ligands capable of improving testicular germ cell proliferation was developed. The process uses expression data obtained by mining scRNA-seq data obtained from testicular tissue (FIG. 27). The process systematically prioritizes candidates for spermatogonia ligands through a series of bioinformatics analyses and filtering. The process comprises identifying and selecting potential ligands based on their receptor expression in State 1 SSCs (active stem cells) and State 2/3 differentiating spermatogonia (differentiated germ cells with strong proliferation ability), or any combination thereof.
More specifically, the approach was based on the single-cell RNA sequencing transcriptome profile of the adult human testis atlas (Guo, J., Grow, E. J., Mlcochova, H., Maher, G. J., Lindskog, C., Nie, X., Guo, Y., Takei, Y., Yun, J., Cai, L., et al. (2018). The adult human testis transcriptional cell atlas. Cell Research 28, 1141. 10.1038/s41422-018-0099-2; the disclosure of all of which is incorporated herein in its entirety), which provides a comprehensive characterization of cell types in the human adult testis. Pseudo-bulk RNA-seq analysis was used, which involves aggregating individual cells into groups to enhance the receptor gene expression signal on SSCs and differentiating spermatogonia. Each individual cell is assigned to its corresponding cell type cluster based and summing the expression values of all cells within each cluster to create pseudo-bulk samples.
The CellTalkDB database was used to identify receptors expressed in SSCs/differentiating spermatogonia. Specifically, the receptors whose expression in SSCs/differentiating spermatogonia ranks within the top 150 were selected, as expression levels below this point are generally low in these cell populations. […] This filtering step helps to focus on receptors that are more specific to the target cell populations. Using the CellTalkDB database, the corresponding ligands for the selected receptors were then identified. The ligand candidates were prioritized based on their expression levels in the testes, and their known functionality.
The identified ligands were then used in the iterative process of the instant disclosure for identifying culture conditions that support testicular germ cell proliferation in vitro to refine the culture conditions.

Molecule | Effective
FGF2: basic fibroblast growth factor | Yes
rh LIF: leukemia inhibitory factor; ligand of IL6ST/LIFR | Yes
C[C@]12CC[C@H]3[C@@H](CCC4=CC(=O)CC[C@@]43C)[C@@H]1CC[C@@H]2O [Testosterone, reference compound] | Yes
rh beta-NGF: ligand of KIDINS220 | Yes
rh Secretin: ligand of VIPR2 | No
rh CXCL12: chemokine; ligand of CXCR4 | No
B1 | Yes
B2 | No
B3 | Yes
B4 | Yes
B5 | No
B6 | No
B7 | No
B8 | No
B9 | Yes
B10 | No
B11 | No
B12 | No
